From patent US20240270826A1 (NATIONAL RESEARCH COUNCIL OF CANADA, published 2024) come the findings set out here.

Assay [1] has as its target Human SARS-CoV-2_Wuhan S (SmT1) (SARS-CoV-2 (Wuhan), UniProt P0DTC2 14-1208). Put plainly: flow cytometry SVNA, VHH-Fc vs biotin-S binding to Vero E6 ACE2. A general note: A flow cytometer gives signals particle by particle.
Assay [2] concerns the target SARS-CoV-2 spike protein S on live virus, Wuhan (strain SARS-CoV-2/Canada/VIDO-01/2020) (SARS-CoV-2 (Wuhan), UniProt P0DTC2 14-1273). Put plainly: cell-based or functional assay.
The target in assay [3] is Human SARS-CoV-2_Wuhan S (SmT1) (SARS-CoV-2 (Wuhan), UniProt P0DTC2 14-1208). Put plainly: flow cytometry SVNA: VHH-Fc inhibits S binding to ACE2 on Vero E6 cells.
The target in assay [4] is T1, SARS-CoV-2 spike trimer S (Wuhan, SmT1) (SARS-CoV-2 Wuhan).
T1 construct: extracellular domain
Put plainly: SPR, antigen on chip. On the technique in general: In SPR one partner is held on a chip, and binding of the other changes the refractive index at the surface.

Assay [5] deals with T2, SARS-CoV-2 S1 (aa16-685) (Wuhan) (SARS-CoV-2 Wuhan, UniProt P0DTC2 16-685).
T2 construct: NRC; FLAG, 6xHis tags
Put plainly: SPR, antigen on chip.

Assay [6] concerns the target T3, SARS-CoV-2 S2 (aa686-1208) (Wuhan) (SARS-CoV-2 Wuhan, UniProt P0DTC2 686-1208).
T3 construct: NRC; FLAG, 6xHis tags
Put plainly: SPR, antigen on chip.

B1: NRCoV2-MRed05 VHH-Fc (Fc fusion)
chain: EVQLVESGGGLVQPGGSLRLSCAASGFTLDYYAIGWFRQAPGKEREGVSCISSSDGSTLYADSVKGRFTISRDNAKNTVYLQMNSLKPEDTAVYYCATGPQAYYSGSYYFQCPQAGMDYWGKGTQVTVSS
notes: bivalent VHH-Fc
What is called IC50 is the concentration at which inhibition is half-maximal. Read a low IC50 as greater potency in that assay. The IC99 is the concentration needed for an effect of 99%. Lower therefore signals greater potency. As to B1, in assay [1], the IC50 worked out at 6.1 nM, the concentration for an effect of 99% (IC99) stood at 36.3 nM and the Imax % came to 95%. Besides, the “LVNA IC50” value in assay [2] was determined as 0.17 nM.

B2: NRCoV2-MRed05 VHH-Fc (Fc fusion)
chain: EVQLVESGGGLVQPGGSLRLSCAASGFTLDYYAIGWFRQAPGKEREGVSCISSSDGSTLYADSVKGRFTISRDNAKNTVYLQMNSLKPEDTAVYYCATGPQAYYSGSYYFQCPQAGMDYWGKGTQVTVSS
notes: bivalent VHH-Fc
B2 came in with a half-maximal inhibitory concentration (IC50) in assay [3] of 4.3 nM.

B3: NRCoV2-17 VHH-Fc (Fc fusion)
chain: EVQLQQSGGGLVQTGGSLRLSCAAAGSPFSQLAMSWYRQISGKERAWVASISPTGNRSYSKIAKGRFTISRDNAKNTVTLQMTSLKPEDTAAYICQAANVNGGDYWGQGTQVTVSS
notes: bivalent VHH-Fc
B3 gave a half-maximal inhibitory concentration (IC50) in assay [3] of 8.6 nM.

B4: NRCoV2-02 VHH-Fc (Fc fusion)
chain: EVQLVESGGGLVQAGGSLRLSCAASGFTFSNYAMNWVRQAPGKGLEWVSGISGRGDDTRYADSVKGRFTISRDNAKNTLFLQMRSLRPEDTGVYRCTKGPDLYYFGSGYSDRGQGTQVTVSS
notes: bivalent VHH-Fc
The molecule B4 gave an IC50 in assay [3] of 4.7 nM.

B5: NRCoV2-MRed03 VHH (VHH)
VHH: EVQLVESGGGLVQPGGSLRLSCAAIGFTLDYYAIGWFRQAPGKEREGVSCISSSDGSTYYADSVKGRFTISRDNAKNTVYLQMNSLKPEDTAVYYCATDAFATCDSWYAQIAQYDFRGQGTQVTVSS
What is called Kd is the free concentration of one partner at which half of the binding sites on the other are occupied at equilibrium, for simple one-to-one binding. Higher therefore signals weaker binding. In general, koff refers to a measure of how fast the partners let go of each other. Usually kon stands for a measure of how fast the partners come together. Consider B5, for which, in assay [4], the equilibrium dissociation constant (Kd) was determined as 0.52 nM, the off-rate constant (koff) came out at 8.14e-05 s⁻¹ and the kon is 157000 M⁻¹ s⁻¹. In assay [5], this molecule came in with an equilibrium dissociation constant (Kd) of 0.223 nM, a dissociation rate constant (koff) of 6.15e-05 s⁻¹ and an association rate constant (kon) of 276000 M⁻¹ s⁻¹. Besides, the binding result in assay [6] was “no binding”.

B6: NRCoV2-SR13 VHH-Fc (Fc fusion)
chain: EVQLVESGGGLVTTGGSLRLSCATSGSRFGSKHMAWYRQAPGKQRDLVAAISSGGSTHYGSSVKGRFTISRDNAKSTVYLQMNSLNPEDTAVFYCNMGGWDYRSNTYIPGSRSDYWGQGTQVTVSS
notes: bivalent VHH-Fc
In assay [1], B6 displayed an IC50 of 23.8 nM, a 99% effect concentration (IC99) of 1970 nM and an Imax % of 82%. Besides, the “LVNA IC50” value in assay [2] was approximately 100 nM.

B7: NRCoV2-15 VHH-Fc (Fc fusion)
chain: EVQLVSSGGGLVEAGGSLRLSCIASGSTSGRNTMGWFRQAPGKQREWVAIVSTSGATNYAGSVKGRFTLSRDNAKNAVYLQMNNLKPEDTAVYYCYAAYGGGGDYWGQGTQVTVSS
notes: bivalent VHH-Fc
In assay [1], B7 came in with an IC50 of 8.1 nM, a 99% effect concentration (IC99) of 71.5 nM and an Imax % of 95%. For the same molecule, the “LVNA IC50” value in assay [2] was 0.73 nM.

B8: NRCoV2-15 VHH-Fc (Fc fusion)
chain: EVQLVSSGGGLVEAGGSLRLSCIASGSTSGRNTMGWFRQAPGKQREWVAIVSTSGATNYAGSVKGRFTLSRDNAKNAVYLQMNNLKPEDTAVYYCYAAYGGGGDYWGQGTQVTVSS
notes: bivalent VHH-Fc
Turning to B8, the IC50 in assay [3] came out at 5.8 nM.

B9: NRCoV2-MRed06 VHH (VHH)
VHH: EVQLVESGGGLVQAGGSLRLSCAASGFTLAYYAIGWFRQAPGKEREGVSCISSSDGSAHYADSVKGRFTISRDNAKNTVSLQMNSLKPEDTAVYYCATDSFSSCSDYESGMDFWGKGTQVTVSS
In assay [4], B9 gave a Kd of 4.8 nM, an off-rate constant (koff) of 0.000887 s⁻¹ and a kon of 185000 M⁻¹ s⁻¹. In assay [5], this molecule returned a dissociation constant (Kd) of 4.22 nM, a koff of 0.00157 s⁻¹ and a kon of 371000 M⁻¹ s⁻¹. Also, the binding result in assay [6] is “no binding”.

B10: NRCoV2-MRed19 VHH (VHH)
VHH: EVQLVESGGGLVQPGGSLRLSCAASTIIFKGQTMGWFRQAPGNERELVATMTTSGSANYADSVKGRFTISRDNEKTVTLQMNSLKPEDTALYYCYMHSVYYGIDYWGKGTQVTVSS
In assay [4], B10 showed a dissociation constant (Kd) of 5.01 nM, a koff of 0.000799 s⁻¹ and a kon of 159000 M⁻¹ s⁻¹. Further, in assay [5], the binding result is “no binding”. In assay [6], the dissociation constant (Kd) came out at 8.2 nM, the koff was 0.00084 s⁻¹ and the association rate constant (kon) came to 102000 M⁻¹ s⁻¹.

B11: NRCoV2-MRed07 VHH (VHH)
VHH: EVQLVESGGGLVQPGGSLTLSCAASGSIGPFNTMGWYRQAPGNQREPAAIITRGGVTNYADSVKGRFTISRDNAKNAVYLQMDSLKPDDTAVYYCYANYGWAIPYWGNGTQVTVSS
As to B11, in assay [4], the Kd was determined as 0.236 nM, the koff worked out at 0.000378 s⁻¹ and the kon was 1.6e+06 M⁻¹ s⁻¹. For the same molecule, in assay [5], the Kd came to 0.378 nM, the koff was found to be 0.000427 s⁻¹ and the on-rate (kon) was determined as 1.13e+06 M⁻¹ s⁻¹. In assay [6], the binding result is listed as “no binding”.

B12: NRCoV2-MRed11 VHH (VHH)
VHH: EVQLVESGGGLVQAGGSLRLSCAASGFTFSSYAMSWHRQAPGKGLEWVSAINSGGGSTSYADSVKGRFAISRDNAKNTLYLQMNSLKPEDTAVYYCATTISDGSSWSTKSYRGQGTQVTVSS
As to B12, in assay [4], the affinity, expressed as Kd, was 17.8 nM; the koff was determined as 0.000418 s⁻¹; the kon was determined as 23400 M⁻¹ s⁻¹. Moreover, in assay [5], the binding result was “no binding”. Also, in assay [6], the Kd was found to be 5.21 nM, the off-rate constant (koff) worked out at 0.000213 s⁻¹ and the kon came out at 40900 M⁻¹ s⁻¹.

B13: NRCoV2-10 VHH-Fc (Fc fusion)
chain: QLQLQESGGGLVQPGGSLTLSCAASGNTFSRSNMHWYRQAPGAQREWVAAISSRGISTYAYSAKGRFTISRDNAKNTVSLQMNSLKPEDTAVYYCYAADDLGDYWGQGTQVTVSS
notes: bivalent VHH-Fc
In assay [1], B13 returned a half-maximal inhibitory concentration (IC50) of 7.7 nM, a 99% effect concentration (IC99) of 77.3 nM and an Imax % of 91%. In assay [2], the “LVNA IC50” value was determined as 1.28 nM.

B14: NRCoV2-10 VHH-Fc (Fc fusion)
chain: QLQLQESGGGLVQPGGSLTLSCAASGNTFSRSNMHWYRQAPGAQREWVAAISSRGISTYAYSAKGRFTISRDNAKNTVSLQMNSLKPEDTAVYYCYAADDLGDYWGQGTQVTVSS
notes: bivalent VHH-Fc
B14 had an IC50 in assay [3] of 8.8 nM.

B15: NRCoV2-MRed22 VHH (VHH)
VHH: EVQLVESGGGLVQPGGSLRLSCAASGSVFASNAMGWYRQAPGKQRELVATISSRGSTNYADSVKGRFTISRDNAKNTVYLQMNSLGPEDTAVYYCNAREFTGFDYWGQGTQVTVSS
In assay [4], B15 displayed a Kd of 0.506 nM, a dissociation rate constant (koff) of 0.000176 s⁻¹ and a kon of 347000 M⁻¹ s⁻¹. Further, the binding result in assay [5] is “no binding”. In addition, in assay [6], the Kd is 1.05 nM, the koff came out at 0.000284 s⁻¹ and the on-rate (kon) is 270000 M⁻¹ s⁻¹.

B16: NRCoV2-1d VHH-Fc (Fc fusion)
chain: EVQLVESGGGSVQPGGSLRLSCAASGSTLDYYAIGWFRQAPGKEREWVSSVSSSDGNTLYADSVKGRFTISRDNAKNTVYLQMNSLKAEDTAVYVCAADYSMRPFAVGRWHRDYEYWGQGTQVTVSS
notes: bivalent VHH-Fc
In assay [3], B16 showed an IC50 of 4.7 nM.

B17: NRCoV2-14 VHH-Fc (Fc fusion)
chain: EVQLVSSGGGLVQAGGSLRLSCEASGTTFSHYAVGWYRQAPGKQREWVASISVFGSTTYGGSVAGRFTISRDNDKNTVDLQMNSLKPEDTAVYYCHAVNADIGGDYWGQGTQVTVSS
notes: bivalent VHH-Fc
B17 returned an IC50 in assay [3] of 7.5 nM.

B18: NRCoV2-SR02 VHH-Fc (Fc fusion)
chain: EVQLVDSGGGLVQAGGSLRLSCTASEFTLNYYSIGWFRQSPGKEREGVSCIRYSGGGIDYADSVKGRFTISRDNAKNTVYLTMNSLKPEDTAVYYCAADRLYSRACPTAGGRNYWGQGTQVTVSS
notes: bivalent VHH-Fc
On to B18, for which, in assay [3], the 50% inhibitory concentration (IC50) is 1.7 nM.

B19: NRCoV2-04 VHH-Fc (Fc fusion)
chain: AVQLVDSGGGLVQPGGSLRLSCAASGSPFSNVVMAWYRQAPGKQRERVAFISGGGIADYIMSVKGRFTISRDNAKNTVYLQMNSLKPEDTAVYYCWSSYESTWGQGTQVTVSS
notes: bivalent VHH-Fc
Regarding B19, in assay [3], the 50% inhibitory concentration (IC50) was 10.8 nM.

B20: NRCoV2-05 VHH-Fc (Fc fusion)
chain: EVKLVQSGGGLVQPGGSLRLSCAASGFIFSNYAMNWVRQAPGKGLEWVSGINSGGGDTRYADSVKGRFTVSRDNAKNTLYLQMNSLKPEDTGVYYCSKGPVSSYYGSGYDYRGQGTQVTVSS
notes: bivalent VHH-Fc
In turn, B20 showed an IC50 in assay [3] of 4.9 nM.

B21: NRCoV2-MRed20 VHH (VHH)
VHH: EVQLVESGGGSVQAGGSLRLSCAASGLSFSSYDMGWFRQAPGKEREFVAAIRESGSGTYYADSVKGRFTISRDNAKNTVYLQVSSLKPEDTAVYTCAAKPPFYGSGTYSTPRAYLYWGQGTQVTVSS
In assay [4], B21 registered a dissociation constant Kd of 0.0918 nM, a koff of 1.46e-05 s⁻¹ and an on-rate (kon) of 160000 M⁻¹ s⁻¹. Further, the binding result in assay [5] was “no binding”. In assay [6], this molecule registered a Kd of 0.299 nM, a koff of 3.38e-05 s⁻¹ and an association rate constant (kon) of 113000 M⁻¹ s⁻¹.

B22: NRCoV2-MRed18 VHH (VHH)
VHH: EVQLVESGGGLVQPGGSLRLSCAASTTVFGRNAMGWYRQAPGKERELVATVSDGGTPNYADSVKGRFTISRDNAKNTIYLQMNSLEPEDTAVYYCNYYNYYYGRNFWGQGTQVTVSS
Take B22: in assay [4], binding was put at a Kd of 7.56 nM, the dissociation rate constant (koff) was determined as 0.00153 s⁻¹ and the association rate constant (kon) was determined as 202000 M⁻¹ s⁻¹. Besides, the binding result in assay [5] is given as “no binding”. In addition, in assay [6], the Kd was found to be 6.8 nM, the koff amounted to 0.00103 s⁻¹ and the kon turned out to be 152000 M⁻¹ s⁻¹.
